Test results published in article doi:10.1101/856021.
Where two headings read alike, the source gives them in different places.

Experiments:
Test in all cases: ITC
[1] = target: PWWP domain of dP75 (residues 8-91) (Drosophila)
[2] = target: dP75 IBD-containing C-terminus region (residues 209-445) (Drosophila)
[3] = target: dP75 IBD-containing C-terminus region (residues 209-445) (Drosophila); remark: listed apart in the source

Q: Which Kd [1] does the source give for H3K36me3 peptide here?
A: > 500 µM

Q: For “Jil-1 peptide from the proximal site (…; residues 984-1004)”, which Kd [2] is on record?
A: 0.8 µM

B1: Jil-1 peptide at the distal site (…; residues 1102-1112) (peptide)
peptide: KREENFYGFSK
Q: With B1 as the molecule, how does the Kd [3] read?
A: 120 µM
